Source: article PMC4844672 (Nature Communications, 2016)
Each block holds one molecule with its values, some of them ahead of it.

What was measured:
[1] = biological target: GbLFY-SAM (N-terminal SAM domain of Ginkgo biloba LEAFY, wild type) (Ginkgo biloba); assay: SEC-MALS; SEC-MALLS on Superdex-200 10/300GL in buffer A, 20 °C, 0.5 ml/min; 50 µl at ~4.5 mg/ml injected; [RE+TE] is an equimolar mixture of the TE and RE mutants
[2] = biological target: the molecule itself; assay: SEC; Superdex-200 10/300GL in buffer A, 4 °C, calibrated with protein standards; molecular mass estimated at different protein concentrations
AtLFY = biological target: T1, AtLFY (Arabidopsis thaliana, UniProt Q00958 1-420); assay: EMSA; 500 nM; behaves like GbLFYΔ; EMSA: 20 mM Tris-HCl pH 7.5, 150 mM NaCl, 1% glycerol, 0.25 mM EDTA, 2 mM MgCl2, 0.01% Tween-20, 3 mM TCEP, 28 ng/ml fish sperm DNA, 10 nM probe, 25-500 nM prot
T1 sequence: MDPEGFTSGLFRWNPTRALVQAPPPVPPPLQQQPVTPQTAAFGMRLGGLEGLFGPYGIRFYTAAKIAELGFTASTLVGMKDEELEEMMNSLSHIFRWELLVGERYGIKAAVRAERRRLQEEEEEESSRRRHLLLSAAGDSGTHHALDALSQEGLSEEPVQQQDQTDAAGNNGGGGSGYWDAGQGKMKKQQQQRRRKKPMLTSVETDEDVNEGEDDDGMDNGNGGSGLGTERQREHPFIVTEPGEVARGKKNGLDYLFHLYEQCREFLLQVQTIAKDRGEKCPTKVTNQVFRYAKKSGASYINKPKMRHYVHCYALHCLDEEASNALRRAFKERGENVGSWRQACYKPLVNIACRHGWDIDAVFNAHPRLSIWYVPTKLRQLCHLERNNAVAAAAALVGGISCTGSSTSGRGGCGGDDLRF

- stoichiometry N [1]: < 8 monomers
Molecule: GbLFY-SAM (N-terminal SAM domain of Ginkgo biloba LEAFY, wild type) (domain or fragment)

B1: AtLFY-SAM (SAM domain of A. thaliana LEAFY) (domain or fragment, Arabidopsis thaliana, UniProt Q00958 38-151, looked up)
chain: QTAAFGMRLGGLEGLFGPYGIRFYTAAKIAELGFTASTLVGMKDEELEEMMNSLSHIFRWELLVGERYGIKAAVRAERRRLQEEEEEESSRRRHLLLSAAGDSGTHHALDALSQ
notes: LEAFY (LFY) of Arabidopsis thaliana, residues 38-151 of the A. thaliana LFY cDNA (plasmid pETH201, vector pETM-11); also called SAM domain of A. thaliana LFY; source: E. coli Rosetta2 (DE3), purified (Ni-Sepharose, TEV cleavage, Superdex-200); not shown: 6 x His, N-terminal, cleaved
- binding result [2]: binds

B2: AGI-II (dsDNA)
DNA 1: CGTTTAAATTTAATCCAATGGTTACAATTTTAATACTATCAAATGTCTATTGGATTTATACCCAATGTGTTAATGGGTTG
DNA 2: CAACCCATTAACACATTGGGTATAAATCCAATAGACATTTGATAGTATTAAAATTGTAACCATTGGATTAAATTTAAACG
- binding result (AtLFY): binds
